Test results as given in US20210024640A1 (REMD BIOTHERAPEUTICS, published 2021).
Changes are numbered by the printed parent chain. Values joined by “and” are separate entries in the source; they are usually repeats but may differ in a detail not shown here. Equal entries are not always repeated.

T1: OX40 on HT1080 OX40 stable cell line (Homo sapiens (Human), UniProt P43489 29-277)
T1 sequence: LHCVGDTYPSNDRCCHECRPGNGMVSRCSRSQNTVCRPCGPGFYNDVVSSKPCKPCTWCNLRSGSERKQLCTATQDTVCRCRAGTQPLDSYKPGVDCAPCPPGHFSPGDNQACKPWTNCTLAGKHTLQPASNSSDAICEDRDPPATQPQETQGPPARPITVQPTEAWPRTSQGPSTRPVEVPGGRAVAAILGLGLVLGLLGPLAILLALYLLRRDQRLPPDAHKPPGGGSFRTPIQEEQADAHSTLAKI

T2: human OX40 (NP_003318) (human, UniProt P43489 29-214, limits assumed)
T2 construct: also called HuOX40; CD134
T2 sequence: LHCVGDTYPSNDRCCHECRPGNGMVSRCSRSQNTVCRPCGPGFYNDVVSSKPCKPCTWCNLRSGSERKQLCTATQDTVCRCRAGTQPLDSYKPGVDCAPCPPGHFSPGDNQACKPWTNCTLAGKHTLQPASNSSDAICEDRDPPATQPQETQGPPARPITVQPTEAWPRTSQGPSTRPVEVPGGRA

T3: OX40-his (Homo sapiens (Human), UniProt P43489 29-214, limits assumed)
T3 construct: Analyte of the Biacore 8K assay; also called Ag OX40-his; Antigen OX40-his; not shown: His tag
T3 sequence: T2 sequence

T4: murine OX40 (murine, UniProt P47741 20-211, limits assumed)
T4 construct: also called MuOX40; mouse OX40
T4 sequence (looked up): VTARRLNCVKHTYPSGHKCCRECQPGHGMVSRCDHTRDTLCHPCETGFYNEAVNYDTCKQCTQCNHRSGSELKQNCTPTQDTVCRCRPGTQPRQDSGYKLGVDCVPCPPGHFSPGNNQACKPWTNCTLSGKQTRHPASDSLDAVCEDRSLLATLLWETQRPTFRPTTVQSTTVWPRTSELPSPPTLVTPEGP

B1: humanized Ab REMD 277 (VH2-1/VL2-2) (antibody, human IgG1, kappa, V domains shown)
VH: EVQLVQSGAEVKKPGESLKISCKGSGYTFTSYVMHWVRQMPGKGLEWMGYINPYNDGTKYNEKFKGQVTISADKSISTAYLQWSSLKASDTAMYYCARYYGSNYAMDYWGQGTMVTVSS
VL: EIVMTQSPATLSASPGERVTLSCRASQDIRNYLNWYQQKPGGAVRLLIYYTSRLHSGVPARFSGSGSGTDYTLTISSLEPEDYAVYFCQQGNTLPWTFGQGTKVEIKR
B2: humanized Ab REMD 277.1 (VH2-1/VL2-1) (antibody, human IgG1, kappa, V domains shown)
VH: B1 VH
VL: B1 VL with M4L, A13L, V19A, G42Q, V44P, V58I, Y71F, Y83F, F87Y
B3: murine antibody A6 (2G2E2D8) (antibody, V domains shown)
VH: EVQLQQSGPELVKPGASVKMSCKASGYTFTSYVMHWVKQKPGQGLEWIGYINPYNDGTKYNEKFKGKATLTSDKSSSTAYMELSSLTSEDSAVYYCANYYGSNYAMDYWGQGTSVTVSS
VL: DIQMTQTTSSLSASLGDRVTISCRASQDIRNYLNWYQQKPDGTVKLLIYYTSRLHSGVPSRFSGSGSGTDYSLTISNLEQEDIATYFCQQGNTLPWTFGGGTKLEIK
notes: also called MAb A6; Murine A6
B4: murine-human chimeric antibody derived from murine antibody A6 (chimeric IgG) (antibody, V domains shown)
VH: B3 VH
VL: DIQMTQTTSSLSASLGDRVTISCRASQDIRNYLNWYQQKPDGTVKLLIYYTSRLHSGVPSRFSGSGSGTDYSLTISNLEQEDIATYFCQQGNTLPWTFGGGTKLEIKR
notes: also called chimeric OX40 Ab
B5: humanized Ab REMD 277.2 (VH2-1/VL5BM) (antibody, human IgG1, kappa, V domains shown)
VH: B1 VH
VL: B4 VL with T7S, T8P, L15V, D41G, G42K, S72T, L73F, N77S, E79Q, Q80P
B6: murine antibody A4 (13C2G10F10) (antibody, V domains shown)
VH: B3 VH with V33I, N103S, A105T
VL: B3 VL with T43S
notes: also called MAb A4; H4/L4
B7: murine antibody A5 (40H11C2F5) (antibody, V domains shown)
VH: EVQLQQSGPELVKPGASVKISCKASGYTFTENYMNWVKQSHGKSLEWIGDINRNNGGTRYNQKFKGKATLTVDKSSSTDYMELRSLTSEDSAVYYCGGTVVGYFDVWGTGTTVTVSS
VL: B3 VL with T7I, T8I, S9T, A25S, R30S, H55K
notes: also called MAb A5; H5/L5
B8: murine antibody A3 (14F2C2D7) (antibody, V domains shown)
VH: QVQLKESGPGLVAPSQSLSITCTVSGFSLSSYGVHWVRQPPGKGLEWLGVIWAGGSTDYNSALMSRLSISKDNSKSQVVLKMNSLQTDDTAMYYCAREEVWDWGQGTLVTVSA
VL: B3 VL with R30S, H55Q, W96L, G100A, I106L
notes: also called MAb A3; H3/L3

Each binder was assayed against T1, OX40 on HT1080 OX40 stable cell line (assay: cell-based or functional assay).

Row | Binder | cell-based functional assay in the absence of OX40L, EC50 [nM]
1 | B1 | 1.56

Target: T1, OX40 on HT1080 OX40 stable cell line
Test: cell-based or functional assay
Remark: another data set of the same source

Row | Binder | EC50 (read off the curve), IL-8 secretion, OX40L-free Ab agonist assay [nM]
2 | B2 | ~1

Target: T1, OX40 on HT1080 OX40 stable cell line
Test: cell-based or functional assay
Remark: another data set of the same source

Row | Binder | HT1080 + OX40L Antagonist Assay IC50 [NM]
3 | B3 | 1.34
4 | B4 | 109
5 | B2 | 1.53
6 | B1 | 0.479
7 | B5 | 3.52

Target: T1, OX40 on HT1080 OX40 stable cell line
Test: cell-based or functional assay
Remark: another data set of the same source

Row | Binder | HT1080 + OX4OL/IL-8 Antagonist Assay IC50 [nM] | HT1080 Agonist Assay EC50 (IL-8 secretion) [nM] | HT1080 Agonist Assay nBMAX
8 | B6 | 1.35 | 8.08 | 1.52
9 | B3 |  | 1.56 | 4.54
10 | B7 |  | 2.8 | 3.2
11 | B8 |  | 6.74 | 4.49

The binders below were run against T2, human OX40 (NP_003318) (assay: ELISA, binding to human OX40).

Row | Binder | EC50
12 | B6 | 0.0157 nM and 0.0151 nM
13 | B3 | 0.0275 nM and 0.0272 nM
14 | B7 | 0.0081 nM and 0.0079 nM
15 | B8 | 0.0128 nM and 0.0136 nM

The binders below were run against T2, human OX40 (NP_003318) (assay: ELISA, binding to human OX40 (summary table; repeats Table 3)).

Row | Binder | EC50 [nM]
16 | B3 | 0.0275

Each binder was assayed against T3, OX40-his (assay: SPR Biacore (summary table; repeats Table 6)).
Description: (§1) The affinities of purified antibody binding to OX40-his was determined using a Surface Plasmon Resonance (SPR) biosensor, Biacore 8k. Antibodies were immobilized on the sensor chip through capture method. Antigen OX40-his was used as the analyte. The data of dissociation (kd) and association (ka) rate constants were obtained using Biacore 8k evaluation software. The equilibrium dissociation constants (KD) were calculated from the ratio of kd over ka.

Row | Binder | Kd [nM]
17 | B4 | 9.18
18 | B2 | 13.8
19 | B1 | 6.3
20 | B5 | 5.94

The binders below were run against T2, human OX40 (NP_003318) (assay: OX40L/OX40 blocking ELISA, purified proteins).

Row | Binder | IC50 [nM]
21 | B6 | 0.0683
22 | B7 | 0.0382

What follows are binders tested against T3, OX40-his (assay: SPR Biacore 8K, antibody captured, OX40-his as analyte).
Description: as §1

Row | Binder | Kd [nM] | koff [s⁻¹] | kon [M⁻¹ s⁻¹]
23 | B4 | 9.18 | 0.000865 | 94200
24 | B2 | 13.8 | 0.000848 | 61400
25 | B1 | 6.3 | 0.000178 | 28200
26 | B5 | 5.94 | 0.000119 | 20000

The binders below were run against T5, cyno OX40 (cyno) (assay: ELISA, binding to cyno OX40).
T5 construct: also called CyOX40

Row | Binder | EC50 [nM]
27 | B6 | 0.0305
28 | B3 | 0.0446
29 | B7 | 0.0143
30 | B8 | 0.0171

Target: T2, human OX40 (NP_003318)
Test: ELISA, binding to human OX40
Remark: another data set of the same source

Row | Binder | EC50 [nM]
31 | B4 | 0.028
32 | B2 | 0.96
33 | B1 | 0.6
34 | B5 | 3.1

The binders below were run against T2, human OX40 (NP_003318) (assay: OX40L/OX40 blocking ELISA, purified proteins; OX40L/OX40 ELISA blocking, purified proteins).

Row | Binder | IC50 [nM]
35 | B8 | 0.0293

These binders were tested against T4, murine OX40 (assay: ELISA, murine OX40 binding).

Row | Binder | binding result
36 | B6 | no binding
37 | B3 | no binding
38 | B7 | no binding
39 | B8 | no binding
